Target: the molecule itself

B1: Herpes simplex virus type 1 SSB/recombination protein ICP8 (natural protein)
chain: METKPKTATTIKVPPGPLGYVYARACPSEGIELLALLSARSGDSDVAVAPLVVGLTVESGFEANVAVVVGSRTTGLGGTAVSLKLTPSHYSSSVYVFHGGRHLDPSTQAPNLTRLCERARRHFGFSDYTPRPGDLKHETTGEALCERLGLDPDRALLYLVVTEGFKEAVCINNTFLHLGGSDKVTIGGAEVHRIPVYPLQLFMPDFSRVIAEPFNANHRSIGEKFTYPLPFFNRPLNRLLFEAVVGPAAVALRCRNVDAVARAAAHLAFDENHEGAALPADITFTAFEASQGKTPRGGRDGGGKGAAGGFEQRLASVMAGDAALALESIVSMAVFDEPPTDISAWPLFEGQDTAAARANAVGAYLARAAGLVGAMVFSTNSALHLTEVDDAGPADPKDHSKPSFYRFFLVPGTHVAANPQVDREGHVVPGFEGRPTAPLVGGTQEFAGEHLAMLCGFSPALLAKMLFYLERCDGAVIVGRQEMDVFRYVADSNQTDVPCNLCTFDTRHACVHTTLMRLRARHPKFASAARGAIGVFGTMNSMYSDCDVLGNYAAFSALKRADGSETARTIMQETYRAATERVMAELETLQYVDQAVPTAMGRLETIITNREALHTVVNNVRQVVDREVEQLMRNLVEGRNFKFRDGLGEANHAMSLTLDPYACGPCPLLQLLGRRSNLAVYQDLALSQCHGVFAGQSVEGRNFRNQFQPVLRRRVMDMFNNGFLSAKTLTVALSEGAAICAPSLTAGQTAPAESSFEGDVARVTLGFPKELRVKSRVLFAGASANASEAAKARVASLQSAYQKPDKRVDILLGPLGFLLKQFHAAIFPNGKPPGSNQPNPQWFWTALQRNQLPARLLSREDIETIAFIKKFSLDYGAINFINLAPNNVSELAMYYMANQILRYCDHSTYFINTLTAIIAGSRRPPSVQAAAAWSAQGGAGLEAGARALMDAVDAHPGAWTSMFASCNLLRPVMAARPMVVLGLSISKYYGMAGNDRVFQAGNWASLMGGKNACPLLIFDRTRKFVLACPRAGFVCAASSLGGGAHESSLCEQLRGIISEGGAAVASSVFVATVKSLGPRTQQLQIEDWLALLEDEYLSEEMMELTARALERGNGEWSTDAALEVAHEAEALVSQLGNAGEVFNFGDFGCEDDNATPFGGPGAPGPAFAGRKRAFHGDDPFGEGPPDKKGDLTLDML
B1: binds.

— publication PMC2757162 (Journal of molecular biology, 2008)
